Data from patent publication US20210206865A1.
One block for each binder: values may come before it.

Molecular target: monkey BCMA-MMH (monkey BCMA with C-terminal myc-myc-hexahistidine tag) (monkey)
Assay: SPR Biacore, 25 C, mAb captured via anti-hFc

Chain of monkey BCMA-MMH (monkey BCMA with C-terminal myc-myc-hexahistidine tag) (monkey) (chain, as listed by the source limits assumed): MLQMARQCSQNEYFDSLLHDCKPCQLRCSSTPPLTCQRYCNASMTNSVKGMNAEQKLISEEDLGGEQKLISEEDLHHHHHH

90 nM mfBCMA.mmh Bind (RU): 1.9 RU
B1: mAb16747 (REGN4515) (antibody, V domains shown)
VH: QVQLVESGGGLVKPGGSLRLSCAASGFTFSDYYISWIRQAPGKGLEWVSYISSSGSSIKYADSVKGRFTISRDNAKNSLYLQMNSLRAEDTAVYYCAREGGNYGMDVWGQGTTVTVSS
VL: DIQMTQSPSSVSASVGDRVTITCRASQGINNWLVWYQQKPGKAPKLLIYAATSLQSGVPSRFSGSGSGTDFTLTISSLQPEDFATYYCQQANSFPPTFGQGTKLEIK

90 nM mfBCMA.mmh Bind (RU): 1.1 RU
B2: mAb16732 (REGN4514) (antibody, V domains shown)
VH: EVQLVESGGGLVQPGRSLRLSCAASGFTFDDYAMHWVRQAPGKGLEWVSGISWNSGNMGYADSVKGRFTISRDNAKNSLFLQMHSLRAEDTAFYYCAKVRLTAFDFWGQGTLVTVSS
VL: DIQMTQSPSSLSASVGDRVTITCRTSQSIGNYLNWFQQKPGKAPKLLIYTASSLQNGVPSRFTGSGSGTDFTLTISSLQPEDFVIYYCQQSFSTPYTFGQGTKLEIK
